Data taken from the nanobody polyreactivity screen of Harvey et al. (2022).

experiment: yeast display, Sf9 membrane polyspecificity reagent, FACS + sequencing; frameworks hold sequencing errors
How it was run: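 Nanobodies came from a synthetic yeast display library in Saccharomyces cerevisiae BJ5465, induced with galactose for 36–48 hours and stained for 1 hour at 4 °C with 10% biotinylated, detergent-solubilized Sf9 membrane reagent. Cells were enriched on streptavidin microbeads and then FACS-sorted, with low and high (top ~1%) gates set on anti-HA fluorescence for expression and streptavidin fluorescence for reagent binding. Each polyreactivity label reflects the gate a clone came from. Genes were amplified by colony PCR, sequenced by MiSeq 2 × 250 and filtered by CDR length.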

Question: Which “polyreactivity (PSR sort gate)” value does the source give for “QVQLVESGGGLVQAGGSLRLSCAASGSIFGFNAMGWYRQAPGKERELVAAISSGGITNYADSVKGRFTISRDNAKNTVSLQMNSLKPEVTAVYYCAAASESNWSFNYWGQGTQVTVSS” here?
Answer: low polyreactivity

Question: For “QVQLVESGGGLVQAGGSLRLSCAASGSIFGFNAMGWYRQAPGKERELVAAISSGSTYYADSVKGRFTISRDNAKNTVYLQMNRLKPEDTAVYYCAATTGYSWYGYWGQGTQVTVSS”, which “polyreactivity (PSR sort gate)” value is on record?
Answer: low polyreactivity

Question: With “QVQLVESGGGLVQAGGSLRLSCAASGSIFGFNTMGWYRQAPGKERELVATINRSGGSTYYADSVKGRFTISRDNAKNTVYVQINSLKPEDTAVYYCAKDVWRHYMNLYDYWGQGTQVTVSS” as the sequence, how does the “polyreactivity (PSR sort gate)” value read?
Answer: low polyreactivity

Question: Which “polyreactivity (PSR sort gate)” value does the source give for “QVQLVESGGGLVQAGGSLRLSCAASGSIFGFYAKGWSRQAPGKEWELVAAITSGDSTHYADSVKGRFTISRDNAKNTVYLQMKSLKPEDTAVNYCAASAPYRYYRSAYSYWGLGTQVTVSS” here?
Answer: low polyreactivity

Question: Which “polyreactivity (PSR sort gate)” value does the source give for “QVQLVESGGGLVQAGGSLRLSCAASGSIFGFYAMGWSRQAPGKERELVAAITSGARTTYADSVKGRFTISRDNAKNTVYLQMNSLKPEDTAVYYSNADTGLGSLDFDKRDYWGQGTQVTVSS” here?
Answer: low polyreactivity

Question: With “QVQLVESGGGLVQAGGSLRLSCAASGSIFGFYAMGWYRQAPGKERELVAAITTGGSTYYADSVKGRFTISRDNAKNNVYFQMISLKPEDTAVYYCAKERWFPYERNDYWGQGTLVTVSS” as the sequence, how does the “polyreactivity (PSR sort gate)” value read?
Answer: low polyreactivity

Question: For “QVQLVESGGGLVQAGGSLRLSCAASGSIFGFYAMGWYRQAPGKERELVAAITYSGGSTYADSVKGRFTISRDNAKNTVYLQMNSLKPEDTAVYYCAKDAELDITDAFYYWGQGTQVTVSS”, which “polyreactivity (PSR sort gate)” value is on record?
Answer: low polyreactivity

Question: Which “polyreactivity (PSR sort gate)” value does the source give for “QVQLVESGGGLVQAGGSLRLSCAASGSIFGFYAMGWYRQAPGKERELVASITISGGSTYYADSVKGRFTISRDNAKNTVYLQLNSLKPEDTAVYYCAARRFWDYNYWGQGTQVTVSS” here?
Answer: low polyreactivity

Question: With “QVQLVESGGGLVQAGGSLRLSCAASGSIFGGNAMGWYRQPPGKERELVAAITDGGNTNYADSVKGRFTISRDNAKNTVYLQMNSMKPEDTAVFYCAARIPGTYGGRYGYDYWGQGTQVTVSS” as the sequence, how does the “polyreactivity (PSR sort gate)” value read?
Answer: low polyreactivity

Question: For “QVQLVESGGGLVQAGGSLRLSCAASGSIFGGNTMGWYRQAPGKERELVAAIRYSGGSTYYADSVKGRFTISRDNAKNTVYLQMNSLKPEDTAVYYCATSYRQYGYYWYDYWGQGTQVTVSS”, which “polyreactivity (PSR sort gate)” value is on record?
Answer: high polyreactivity

Question: For “QVQLVESGGGLVQAGGSLRLSCAASGSIFGGYAMGWYRPAPGKERELVAAISKTGGTTYYADSVKGRFTISRDNAKNTVYLQMKSLKPEDTAVYYCNAPKRYSGSAYGYGYWGQGTQVTVSS”, which “polyreactivity (PSR sort gate)” value is on record?
Answer: high polyreactivity

Question: With “QVQLVESGGGLVQAGGSLRLSCAASGSIFGGYAMGWYRQAPCQDRELVAAISTRGGSTYYADSVKGRFTISRDNAKNTVYLQMNSQKPEDTAVYYCAADYLDSSYGYVYGWDDYWGQGTQVNVSS” as the sequence, how does the “polyreactivity (PSR sort gate)” value read?
Answer: low polyreactivity

Question: Which “polyreactivity (PSR sort gate)” value does the source give for “QVQLVESGGGLVQAGGSLRLSCAASGSIFGGYAMGWYRQAPGKEREFVAAISRRGASTYYADSVKGRFTISRDNAKNTVYLQMNSLKPEDTAVYYCNARAYGRIDGHSATYGYWGQGTQVTVSS” here?
Answer: high polyreactivity

Question: For “QVQLVESGGGLVQAGGSLRLSCAASGSIFGGYAMGWYRQAPGKERELVAAISFSGGSTYYADSVKGRFTISRDNAKNTVYSQMNSLKPEDTAVYYCAADPYYSYLFDYWGQGTQVTVSS”, which “polyreactivity (PSR sort gate)” value is on record?
Answer: low polyreactivity

Question: Which “polyreactivity (PSR sort gate)” value does the source give for “QVQLVESGGGLVQAGGSLRLSCAASGSIFGGYAMGWYRQAPGKERELVAAISRSGGRTYYADSVKGRFTISRDNAKNTVYLQMNSLKPEDTAVYYCNRVTGYDSGDGYWGQGTQVTVSS” here?
Answer: high polyreactivity

Question: Which “polyreactivity (PSR sort gate)” value does the source give for “QVQLVESGGGLVQAGGSLRLSCAASGSIFGGYAMGWYRQAPGKERELVAAISSGGSTYYADSVKGRFTISRDNAKNTVYLQMKSLKPEDTAVYYCATSTYAYRRNSYYYTRPRFGYWGQGTQVTVSS” here?
Answer: high polyreactivity

Question: For “QVQLVESGGGLVQAGGSLRLSCAASGSIFGGYAMGWYRQAPGKERELVAAISSSGVRTYYADSVKGRFTISRDNAKNTVYLQMNSLKPEDTAVYYCAADRSRSIIPFDYWGQGTQVTVSS”, which “polyreactivity (PSR sort gate)” value is on record?
Answer: low polyreactivity

Question: Which “polyreactivity (PSR sort gate)” value does the source give for “QVQLVESGGGLVQAGGSLRLSCAASGSIFGGYAMGWYRQAPGKERELVADISGSGGGTYYADSVKGRFTISRDNAKNTVYLQMNSLKPEDTAVYYCARRPRTYKHWFGYWGQGTQVTVSS” here?
Answer: low polyreactivity

Question: With “QVQLVESGGGLVQAGGSLRLSCAASGSIFGGYAMGWYRQAPGKERELVAGITYSGDSTYYADSVKGRFTISRDNAKNTVYLQMNSLKPEDTAVYYCNADQRVDHDDFDYWGQGTQVTVSS” as the sequence, how does the “polyreactivity (PSR sort gate)” value read?
Answer: low polyreactivity

Question: With “QVQLVESGGGLVQAGGSLRLSCAASGSIFGGYAMGWYRQAPVKERELVARIRVSGGRTYYSDSVKGRFTISRDNAKNTVYLQRNSLKPEDTAVYYCNALLAGRRVARGYDSWGQGTQVTVSS” as the sequence, how does the “polyreactivity (PSR sort gate)” value read?
Answer: high polyreactivity

Question: Which “polyreactivity (PSR sort gate)” value does the source give for “QVQLVESGGGLVQAGGSLRLSCAASGSIFGGYTMGWYRQAPGKERELVAAISRRGGNTYYADSVKGRFTISRDNAKNTVYLQMNSLKPEDTAVYYCAVRWPSARIPVKLDYWGQGTQVTVSS” here?
Answer: high polyreactivity

Question: For “QVQLVESGGGLVQAGGSLRLSCAASGSIFGIYAMGWYRQAPGKERELVAAISKSGGGTYYADSVKGRFTISRDNAKNTVYLQMNSLKPEDTAVYYCNADYWQWYSYWYDYWGQGTQVTVSS”, which “polyreactivity (PSR sort gate)” value is on record?
Answer: high polyreactivity

Question: Which “polyreactivity (PSR sort gate)” value does the source give for “QVQLVESGGGLVQAGGSLRLSCAASGSIFGIYTMGWYRQAPGKERELVAAIRRSGSTNYADSVKGRFTISRDNAKNTVYLQMNSLKPEDTAVYYCAADALSDEYDYWGQGTQVTVSS” here?
Answer: low polyreactivity

Question: Which “polyreactivity (PSR sort gate)” value does the source give for “QVQLVESGGGLVQAGGSLRLSCAASGSIFGKNAMGWYRQAPGKERELVAAITRRGGSTYYADSVKGRFTISRDNAKNTVYLQMNSLKPEDTAVYYCNALLTGGYQDSYPDDYWGQGTQVTVSS” here?
Answer: high polyreactivity

Question: Which “polyreactivity (PSR sort gate)” value does the source give for “QVQLVESGGGLVQAGGSLRLSCAASGSIFGLNAMGWYRQAPGKERELVAASSVSGTRTYYADSVKGRFTISRDNAKNTGYVQMNSLKPEDTAVYYCATRRYIFYSPYRYGYWGQGTHVTVSS” here?
Answer: high polyreactivity

Question: For “QVQLVESGGGLVQAGGSLRLSCAASGSIFGLYAMGWYRQAPGKEREFVASITYSGGSTYYADSVKGRFTISRDNAKNTVYLQMTSLKPEDTAVYYCAAESYWGYDYWGQGTQVTVSS”, which “polyreactivity (PSR sort gate)” value is on record?
Answer: high polyreactivity

Question: Which “polyreactivity (PSR sort gate)” value does the source give for “QVQLVESGGGLVQAGGSLRLSCAASGSIFGLYAMGWYRQAPGKERELVAAINQSGGSTSYADSVKGRFTISRDNAKNTVYLQMNSLKPEDTAVYYCNRVRLNSEGFDYWGQGTQVTVSS” here?
Answer: low polyreactivity

Question: For “QVQLVESGGGLVQAGGSLRLSCAASGSIFGLYAMGWYRQAPGKERELVAAINWNGGDTYYADSVKGRFTISRDYAKNTVYLQMNSLIAVDNAVYYCAAYPRDPYKEYDYLGQGTQVTVSS”, which “polyreactivity (PSR sort gate)” value is on record?
Answer: low polyreactivity

Question: For “QVQLVESGGGLVQAGGSLRLSCAASGSIFGLYAMGWYRQAPGKERELVATITSGTNTYYADSVKGRFTISRDNAKNTVYLQMNSLKAEDTAVYYCAKSYIAWDGRTFEEMNYWGQGTLVTVSS”, which “polyreactivity (PSR sort gate)” value is on record?
Answer: low polyreactivity

Question: With “QVQLVESGGGLVQAGGSLRLSCAASGSIFGLYAMGWYRQAPGKERELVAVITYSVGTTYYADSVKGRFTISRDNAKNTVYLQMNSLKPEDTAVYYCAADLYWYYPWSAYYGEYDYWGQGTQVTVSS” as the sequence, how does the “polyreactivity (PSR sort gate)” value read?
Answer: low polyreactivity

Question: For “QVQLVESGGGLVQAGGSLRLSCAASGSIFGLYAMGWYRQAPGKEREVFADITIGGSTYYADSVKGRFTISRDNAKNTVYLQMNSLKPEDTAVYYCASRPGSWYPSVPSYNYWGQGTQVTVSS”, which “polyreactivity (PSR sort gate)” value is on record?
Answer: low polyreactivity

Question: With “QVQLVESGGGLVQAGGSLRLSCAASGSIFGNNAMGWYRQAPGKERELVAAITSGGSTTYADSVKGRFTISRDNAKNTVYLLMNSLKPEDTAVYYCAATPVWGFVWEYNYWGQGTQVTVSS” as the sequence, how does the “polyreactivity (PSR sort gate)” value read?
Answer: low polyreactivity

Question: For “QVQLVESGGGLVQAGGSLRLSCAASGSIFGNNVMGWYRQAPGKERELVAAITSGTSTYYADSVKGRFTISRDNAKNTVYLQMNSLKPEDTAVYYCAALWSSRYVVHPQWYDYWGQGTQVTVSS”, which “polyreactivity (PSR sort gate)” value is on record?
Answer: low polyreactivity

Question: With “QVQLVESGGGLVQAGGSLRLSCAASGSIFGNYVMGWYRPAPGKERELVAAISWSGGTNYADSVKGRFTISRDNAKNTVYLQMNSLKPEDTAVYYCAALSVWSYYTYYYWGQGTQVTVSS” as the sequence, how does the “polyreactivity (PSR sort gate)” value read?
Answer: high polyreactivity

Question: Which “polyreactivity (PSR sort gate)” value does the source give for “QVQLVESGGGLVQAGGSLRLSCAASGSIFGPNAMGWYRQAPGKERELGAAISWRGGSTYYADSVKGRFTISRDTAKNTVYLQMNSLKPEDTAVYYCNKYLTWAEGLPGYDYWGQGTQVTVSS” here?
Answer: high polyreactivity

Question: Which “polyreactivity (PSR sort gate)” value does the source give for “QVQLVESGGGLVQAGGSLRLSCAASGSIFGPYVKGWYRQAPGTERELVASITSSGGSTYYADTVKGRFTISRDNAKNTVYIQMNSLKPEDTAVYYCNAVRFTPTNSHRYYWGQGTQVTVSS” here?
Answer: high polyreactivity

Question: Which “polyreactivity (PSR sort gate)” value does the source give for “QVQLVESGGGLVQAGGSLRLSCAASGSIFGRNAMGWYRQAPGKERELVAAIRTRGGSTYYADSVKGRFTNSRDIAKNSVYLQMNSLKPEDTAVYYCAAPGGGKEVDYWGQGTQVTVSS” here?
Answer: low polyreactivity

Question: For “QVQLVESGGGLVQAGGSLRLSCAASGSIFGRNAMGWYRQAPGKERELVAAITWSGDSTYYADSVKGRFTISRDNAKNSVYLQMNSLKPEVTAVYYCAVKSYVPYLSYIYSFGYWGQGTQVTVSS”, which “polyreactivity (PSR sort gate)” value is on record?
Answer: low polyreactivity

Question: For “QVQLVESGGGLVQAGGSLRLSCAASGSIFGRNAMGWYRQAPGKERELVADIWNGGSTYYADAVKGRFTISRDNAKNTVYLQMNSLKPEDTAVYYCNADADDVGRFGGYIKYDYWGQGTQVTVSS”, which “polyreactivity (PSR sort gate)” value is on record?
Answer: low polyreactivity

Question: With “QVQLVESGGGLVQAGGSLRLSCAASGSIFGRNDMGWYRQAAGKERELVAAISKRGGRTYYADSVKGRFTISRDNAKNTVYLQMNSLKPEDTAVYYCAADQPTLAYPGGYSAGMDYWGQGTQVTVSS” as the sequence, how does the “polyreactivity (PSR sort gate)” value read?
Answer: high polyreactivity

Question: With “QVQLVESGGGLVQAGGSLRLSCAASGSIFGRNDMGWYRQAPGKERELVAAISGDTTTNYADSVKGRFTISRDNAKNTVYLQMNSLKPEDTAVYYCAAKYGYRRGTVRGYTRVYYWGQGTQVTVSS” as the sequence, how does the “polyreactivity (PSR sort gate)” value read?
Answer: high polyreactivity

Question: With “QVQLVESGGGLVQAGGSLRLSCAASGSIFGRNVMGWYRQAPGKERELVAAISEGGGRTYYADSVKGRFTISRDNAKNTVYLQMNSLKPEDTAVYYCAAAYFSSGYKYYYWGQGTQVTVSS” as the sequence, how does the “polyreactivity (PSR sort gate)” value read?
Answer: high polyreactivity

Question: With “QVQLVESGGGLVQAGGSLRLSCAASGSIFGRYAMGWYRQAPGKERELVAAISANGGSTYYADSVKGRFTISRDNAKNTVYLQMNSLKPEDTAVYYCAAGSTRGYKLGYWGQGTQVTVSS” as the sequence, how does the “polyreactivity (PSR sort gate)” value read?
Answer: high polyreactivity
